Measurements from patent US20050282743A1, “Molecular interactions in cells” (Arbor Vita Corporation, priority 2001, published 2005).
Ends that are not written are not given here. Peptide text beside a SMILES is read from it. * marks the point of attachment. Biotin = O=C1N[C@H]2[C@H](CS[C@H]2CCCCC(=O)*)N1

Each molecule was assayed against T1, PDZ protein (GST-PDZ fusion) (Homo sapiens, UniProt Q96JY6) (assay: G' assay (10 uM PL peptide), results of TABLE 7 and TABLE 12). Details: PDZ LIM-Mystique, PDZ Domain 1.
T1 construct: made in house; host or cells: E. coli (DH5alpha, BL21 or JM109)
T1 sequence (Q96JY6 1-352): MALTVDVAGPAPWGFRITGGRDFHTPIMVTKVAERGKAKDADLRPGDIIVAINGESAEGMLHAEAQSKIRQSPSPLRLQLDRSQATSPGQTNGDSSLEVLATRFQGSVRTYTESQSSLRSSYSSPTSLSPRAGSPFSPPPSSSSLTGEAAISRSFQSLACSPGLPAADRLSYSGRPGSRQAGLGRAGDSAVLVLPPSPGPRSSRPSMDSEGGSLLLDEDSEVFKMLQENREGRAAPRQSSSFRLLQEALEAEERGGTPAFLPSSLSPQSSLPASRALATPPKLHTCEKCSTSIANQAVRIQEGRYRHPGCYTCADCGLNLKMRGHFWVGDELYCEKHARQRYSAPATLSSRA
Format: binding
In short: (§1)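 Same steps as the G-zero format, apart from a peptide concentration of 10 uM in place of 20 uM in step 2. Amino-terminally biotinylated PL peptides bind GST-PDZ fusions, and retained peptide is quantified by 450 nm absorbance.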

Row | Molecule | Classification
1 | VHDAESSDEDGYDWGPATDL (Biotin-VHDAESSDEDGYDWGPATDL) [zona occludens 3 (ZO-3)] | 2 (A450 nm 1-2)
2 | TQGFPGPATWRRISSLESEV | 4 (A450 nm 3-4)
3 | CC(C)C[C@H](NC(=O)[C@H](CC(=O)O)NC(=O)[C@H](CO)NC(=O)[C@H](CCC(=O)O)NC(=O)CNC(=O)[C@H](Cc1ccc(O)cc1)NC(=O)[C@H](CC(C)C)NC(=O)[C@H](C)NC(=O)[C@H](CO)NC(=O)[C@H](CO)NC(=O)[C@H](Cc1ccccc1)NC(=O)[C@H](C)NC(=O)[C@H](C)NC(=O)[C@H](Cc1ccc(O)cc1)NC(=O)[C@H](CC(=O)O)NC(=O)[C@H](CC(C)C)NC(=O)[C@H](C)NC(=O)CNC(=O)[C@@H]1CCCN1C(=O)[C@@H](NC(=O)CCCC[C@@H]1SC[C@@H]2NC(=O)N[C@@H]21)C(C)C)C(=O)O [a-actinin 2] (Biotin-VPGALDYAAFSSALYGESDL-OH; C-terminus assumed) | 5 (A450 nm of 4 more than 2× repeated)
4 | LASKSAEEGKQIPDSLSTDL (Biotin-LASKSAEEGKQIPDSLSTDL) [Dock2] | 1 (A450 nm 0-1)

The molecules below were run against T2, PDZ protein (GST-PDZ fusion) (Homo sapiens, UniProt Q9C0E4) in the same assay as above. Details: PDZ KIAA1719, PDZ Domain 2.
T2 construct: made in house; host or cells: E. coli (DH5alpha, BL21 or JM109)
T2 sequence (Q9C0E4 whole entry, the tested form may be a part): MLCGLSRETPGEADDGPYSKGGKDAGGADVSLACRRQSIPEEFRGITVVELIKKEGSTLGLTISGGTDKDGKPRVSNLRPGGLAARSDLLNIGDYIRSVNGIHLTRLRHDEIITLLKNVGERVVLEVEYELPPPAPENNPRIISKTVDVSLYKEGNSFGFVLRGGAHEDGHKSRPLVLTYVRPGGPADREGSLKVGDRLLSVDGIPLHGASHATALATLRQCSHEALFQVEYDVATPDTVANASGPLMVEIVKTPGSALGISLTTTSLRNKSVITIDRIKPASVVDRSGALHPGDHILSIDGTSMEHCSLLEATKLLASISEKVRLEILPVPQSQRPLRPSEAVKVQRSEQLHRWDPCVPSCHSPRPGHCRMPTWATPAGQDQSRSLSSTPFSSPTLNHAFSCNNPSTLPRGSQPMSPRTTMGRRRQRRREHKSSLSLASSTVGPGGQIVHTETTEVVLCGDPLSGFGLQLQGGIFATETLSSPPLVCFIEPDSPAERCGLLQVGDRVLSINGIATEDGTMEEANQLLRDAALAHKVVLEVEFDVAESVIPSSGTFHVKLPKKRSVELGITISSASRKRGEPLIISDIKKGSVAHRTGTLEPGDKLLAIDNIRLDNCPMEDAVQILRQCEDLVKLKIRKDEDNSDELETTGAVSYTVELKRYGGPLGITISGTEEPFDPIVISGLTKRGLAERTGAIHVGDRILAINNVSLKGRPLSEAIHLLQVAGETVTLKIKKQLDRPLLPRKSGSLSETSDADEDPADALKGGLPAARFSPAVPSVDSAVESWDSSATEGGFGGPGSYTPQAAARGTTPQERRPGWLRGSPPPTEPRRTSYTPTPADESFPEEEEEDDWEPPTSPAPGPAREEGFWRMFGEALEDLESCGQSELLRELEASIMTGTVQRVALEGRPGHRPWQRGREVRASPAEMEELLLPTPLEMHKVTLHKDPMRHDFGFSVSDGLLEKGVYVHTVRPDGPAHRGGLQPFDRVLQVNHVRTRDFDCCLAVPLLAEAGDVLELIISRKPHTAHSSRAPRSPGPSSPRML
Format: binding
In short: as §1

Row | Molecule | Classification
5 | CKR5_HUMAN (ERASSVYTRSTGEQEISVGL) | 1 (A450 nm 0-1)

Same assay, conditions: PDZ KIAA1719, PDZ Domain 3

Row | Molecule | Classification
6 | A2AC_HUMAN (Modified) (Biotin-DFRPSFKHILFRRARRGFRQ; not fully specified) | 5 (A450 nm of 4 more than 2× repeated)
7 | ALVLIAFCIIRRRPSAYQAL (Biotin-ALVLIAFCIIRRRPSAYQAL) [CD68] | 1 (A450 nm 0-1)
8 | CC[C@H](C)[C@H](NC(=O)[C@H](CO)NC(=O)[C@@H](NC(=O)[C@H](Cc1ccccc1)NC(=O)[C@H](CO)NC(=O)CCCC[C@@H]1SC[C@@H]2NC(=O)N[C@@H]21)[C@@H](C)O)C(=O)N[C@@H](CC(C)C)C(=O)N[C@H](C(=O)N[C@@H](CS)C(=O)N[C@@H](Cc1c[nH]cn1)C(=O)N[C@@H](CCC(N)=O)C(=O)N[C@@H](CCCNC(=N)N)C(=O)N[C@@H](CCCNC(=N)N)C(=O)N[C@H](C(=O)N[C@@H](CCC(N)=O)C(=O)N[C@@H](CCCNC(=N)N)C(=O)N[C@@H](CCCCN)C(=O)N[C@@H](CCC(=O)O)C(=O)N[C@H](C(=O)N[C@H](C(=O)N[C@@H](C)C(=O)O)C(C)C)[C@@H](C)O)[C@@H](C)O)[C@@H](C)O [GluR5-2 (rat)] | 1 (A450 nm 0-1)

Same assay, conditions: PDZ KIAA1719, PDZ Domain 5

Row | Molecule | Classification
9 | CKR5_HUMAN (ERASSVYTRSTGEQEISVGL) | 1 (A450 nm 0-1)
10 | CC[C@H](C)[C@H](NC(=O)[C@H](C)NC(=O)[C@H](CC(C)C)NC(=O)[C@H](Cc1c[nH]c2ccccc12)NC(=O)[C@H](Cc1c[nH]cn1)NC(=O)[C@H](CCC(N)=O)NC(=O)[C@H](CC(C)C)NC(=O)[C@H](CCC(N)=O)NC(=O)[C@H](Cc1ccccc1)NC(=O)[C@H](CCC(N)=O)NC(=O)[C@H](CCCNC(=N)N)NC(=O)[C@@H](NC(=O)[C@H](CC(=O)O)NC(=O)[C@H](CCCNC(=N)N)NC(=O)[C@H](CCC(N)=O)NC(=O)[C@H](C)NC(=O)[C@@H](NC(=O)[C@H](CC(C)C)NC(=O)[C@H](Cc1c[nH]cn1)NC(=O)[C@H](Cc1c[nH]cn1)NC(=O)CCCC[C@@H]1SC[C@@H]2NC(=O)N[C@@H]21)C(C)C)[C@@H](C)CC)C(=O)O [noradrenaline transporter] (Biotin-HHLVAQRDIRQFQLQHWLAI-OH; C-terminus assumed) | 2 (A450 nm 1-2)

Same assay, conditions: PDZ KIAA1719, PDZ Domain 6

Row | Molecule | Classification
11 | ALVLIAFCIIRRRPSAYQAL (Biotin-ALVLIAFCIIRRRPSAYQAL) [CD68] | 1 (A450 nm 0-1)
12 | CC[C@H](C)[C@H](NC(=O)[C@H](C)NC(=O)[C@H](CC(C)C)NC(=O)[C@H](Cc1c[nH]c2ccccc12)NC(=O)[C@H](Cc1c[nH]cn1)NC(=O)[C@H](CCC(N)=O)NC(=O)[C@H](CC(C)C)NC(=O)[C@H](CCC(N)=O)NC(=O)[C@H](Cc1ccccc1)NC(=O)[C@H](CCC(N)=O)NC(=O)[C@H](CCCNC(=N)N)NC(=O)[C@@H](NC(=O)[C@H](CC(=O)O)NC(=O)[C@H](CCCNC(=N)N)NC(=O)[C@H](CCC(N)=O)NC(=O)[C@H](C)NC(=O)[C@@H](NC(=O)[C@H](CC(C)C)NC(=O)[C@H](Cc1c[nH]cn1)NC(=O)[C@H](Cc1c[nH]cn1)NC(=O)CCCC[C@@H]1SC[C@@H]2NC(=O)N[C@@H]21)C(C)C)[C@@H](C)CC)C(=O)O [noradrenaline transporter] (Biotin-HHLVAQRDIRQFQLQHWLAI-OH; C-terminus assumed) | 2 (A450 nm 1-2)
13 | LNETTETQRTLLNGDLQTSI (Biotin-LNETTETQRTLLNGDLQTSI) [SSTR2 (somatostatin recepor 2)] | 1 (A450 nm 0-1)
